Results taken from the nanobody polyreactivity screen of Harvey et al. (2022).

Assay: yeast display, Sf9 membrane polyspecificity reagent, FACS + sequencing; frameworks hold sequencing errors
Procedure, shortened: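 A synthetic nanobody library was expressed on Saccharomyces cerevisiae BJ5465 by galactose induction for 36–48 hours. The library was stained for 1 hour at 4 °C with 10% biotinylated, detergent-solubilized Sf9 membrane reagent and enriched with streptavidin microbeads before FACS. Low and high (top ~1%) gates were set on anti-HA fluorescence for expression and streptavidin fluorescence for reagent binding, and each polyreactivity label reflects the gate of origin.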

Sequence | polyreactivity (PSR sort gate)
QVQLVESGGGLVQAGGSLRLSCAASGSTFVRYPMGWYRPAPGKERELVAGISRVGNTYYADSVKGRFTISRDNAKNTVYLQMNSLKPEDTAVYYCAARSSRWDGYDYWGQGTQVTVSS | high polyreactivity
QVQLVESGGGLVQAGGSLRLSCAASGRVFTPYAMGWYRQAPGKERELVAVIRDGSTYYADSVKGRFTISRDNAKNTVYLQMNSLKPEDTAVYYCRYDIWVWWSGAYDYWGQVTQVTVSS | low polyreactivity
QGQLVQSGVGLVQAGGSLSLSCAASGIIFTWYDMGWYRQAPGKERELVAAISNSGGSTYYADSVKGRFTISRDNAKNTVYLQMNSLKPEDTAVYYCNAGSYVCEEDYWGQGTQVTVSS | high polyreactivity
QVQLVESGGGLVQAGGSLRLSCAASGFTFLYNAMGWYRQAPGKERELVAAIDSGGNTNYADSVKGRFTISRDNAKNTVYLQMNSLKPEDTAVYYCAADVVSGGQGTADYDYWGQGTQVTVSS | low polyreactivity
QVQLVESGGGLVQAGGSLRLSCAAYGGTFPAYTMGWYRQAPGKERELVAAITWSGGNTYYADSVKGRFTISRDNAKNTVYLQMNSLKPQDTAVYYCAAEYWQYQWSVRIDYEYWGQGTQVNVSS | high polyreactivity
QVQLVESGGGLVQAGGSLRLSCAASGRTFRLNAMGWYRQAPGKERELVAAITLGGGRTYYADSVKGRFTISRDNAKNTVYLQMNSLKPEDTAVYYCNKVKRSYYYVDTDYWGQGTQVTVSS | high polyreactivity
QVQLVESGGGLVQAGGSLRLSCAASGSIFGRNAMGWYRQAPGKERELVAAISTSGGSTYYADSVKGRFTISRDNAKNTVYLQMNSLKPEDTAVYYCNAEQYTQLDVNLYDYWGQGTQVTVSS | low polyreactivity
QVQLVESGGGLVQAGGSLRLSCAASGSTFPDNAMGWYRQAPGKERELVAAISFSSGSTYYADSVKGRFTISRDNAKNTVYLQMNILKPEDTAVYYCAVANPSQYEWIAYYYWGQGTQVTVSS | low polyreactivity
QVQLVESGGGLVQAGGSLRLSCAASGRIYAMGWYRQAPGKERELVAAISRGGSTYYADSVKGRFTISRDNAKNTVYLQKNSLKPEDTAVYYCNRKSYRLRWKVRGQYLLGYDWGQGTQVTVSS | high polyreactivity
QVQLVESGGGLVQAGGSLRLICAASGFTIVPNAMGWYRQAPGKERELVAAISRSTGGTYYADSVKGRFTISRDNAKNTVYLQMNSLKPEDTAVYYCAAEYWYWTYGMDYWGQGTQVTVSS | high polyreactivity
QVQLVESGGGLVQAGGSLRLSCAASGGTFAGYAMGWYRQAPGKERELVAAISRSGGSTYYADSVKGRFTISRDNAKNTVYLQMNSLKPEDTAVYYCIAASRTKFDYWGQGTQVTVSS | high polyreactivity
QVQLVESGGGLVQAGGSLRLSCAASGRTFRANAMGWYRQAPGKERELVAAIRTGTRTYYADSVKGRFTISRDNAKNTVYLQMNSLKPEDTAVYYCNRRHYYPYDNYDAMYYWGQGTQVTVSS | high polyreactivity
QDQLVESGGGLVQAGGSLRLSCAASGSIFTHNAMGWYRQAPGKERELVAAISSGGSTNYADSVKGRFTFSRDNAKNTVYLQMNSLKPEDTAVYYCAKSIDGWYWRRRRYDYWGQGTQVTVSS | low polyreactivity
QVQLVESGGGLVQAGGSLRLSCAASGSTFYGYAKGWYRQAPGKERELVAAITRSGGSTYYADSVKGRFTISRDNAKNTVYLQMNSLKPEDTAVYYCAVATGPVSYRRYYWGQGTQVTVSS | high polyreactivity
QVQLVESGGGLVQAGGSLRLSCAASGRTFGVNAMGWYRQAPGKERELVAAISYSGASTFYADSVKGRFTISRDNAKNTVYLQMNSLKPEDTAVYYCDARGYYGGFYYWGQGTQVTVSS | high polyreactivity
QVQLVESGGGLVQAGGSLRLSCAASGLSSLRMLWDGRDRRLGKKGSWLPLITSGGDSTNYADSVKGRFTISRDNAKNTVYLQMNSLKPEDTAVYYCAADLDYPYGYWGQGTQVTVSS | low polyreactivity

Sequence | polyreactivity (PSR sort gate)
QVQLVESGGGLVQAGGSLRLSCAASGRTFRPNVMGWYRQAPGKERELVAAISNGGRTYYADSVKGRFTISRDNAKNTVYLQMNSLKPEDTAVYYCNKVRSPWYDSWGQGTQVTVSS | high polyreactivity
QVQLVESGGGLVQAGGSLRLSCSASGSTFGDYAMRWYRQAPGKREFVAAISFSGGNTYYADSVKVRFTISRDNAKNTVYLQMNSLKPEDTAVYYCNADWDWFYSTGSLGFPDFYYWGQGTQVSVSS | low polyreactivity
QVQLVESGGGLVQAGGSLRLSCAASGIIFGYYAMGWYRQAPGKERELVAAINQDGSSTYYADSVKGRFTISRDNAKNTVYFQMNSLKPEDTAVYYCNARGVPRQDARMGYWGQGTQVTVSS | low polyreactivity
QVQLVESGGGLVQAGGSLRLSCAASGRIFQTYTMGWYRQAPGKERELVARITGGDSTYYADSVKGRFTISRDNAKITVYLQMNSLKPEDTAVYYCAAEVWSYWGTFNYWGQGTQVTVSS | low polyreactivity
QVQLVESGGGLVQAGGSLRLSCAASGSIFRKYVMGWYRQAPGKERELVAAISGSGGRTYYADSVKGRFTISRDNAKNTVYLQMNSLKPEDTAVSYSNAYPHAYTGSTREGDYWGQGTQVTVSS | high polyreactivity
QVQLVESGGGLVQAGGSLCLSGAASGITFRFYAMGWYRQAPGKERELVAAISWSGGRTYYADSVKWRFTISRDNAKNTVYLQMNSLKPEDTAVYYCAAVASSVPGYDYWGQGTQVTVSS | low polyreactivity
QVQLVESGGGLVQAGGSLRLSCAASGSIFYWYAMGWYRQARGKERELVAGITYSGGNTYYADSVKGRFTISRDNAKNTVYLQMNSLKPEDTAVYYCAATRGYWRKWRMDYWGQGTQVTVSS | high polyreactivity
QVQLVESGGGLVQAGGSLRLSCAASGFTFARYTMGWYRQAPGKERELVAAISSRGSSTYYADSVKGRFTISRDNAKNTVYLQMNSLKRVDTAVYYCAAPPRYGYDYWGHGTQVTVSS | high polyreactivity
QDQLVKSGGGLVQAGGSLLLSCAASGHTFSGYVMGWYRPAHGKERELVAAIRSGGSTYYADSVKGRFTISRDNAKKTVYLQMNSLKPEDTAVYYCAKSVTRYRTSAYGYWGQGTQVTVSS | high polyreactivity
QVQIVESGGGLVQAGGSLRLSCAASGFIFGQYAMGWYRQAPGKERELVAAISSVGTTNYADSVKGRFTISRDNAKNTVYLQMNSLKPEDTAVYYCNAPVFYYWDYSYFPYEVDYWGQGTQVTESS | low polyreactivity
QVQLVESGGGLVQAGGSLRLSCSASGSIFGYYGMGLYRQAPGKERELVATISWSGDSTNYADSVKGRFTISRDNAKNTVYLQMNSLKPEDTAVYYCAAEWHAGWGGWLRYRHYEYWGQRTQVTVSS | low polyreactivity
QVQLVESGGGLVQAGGSLRLSSAASGSTLTFNAMGWYRQAPGKERELVAAISWSDTDTYYADSVKGRFTISRDNAKNTVYLQMNSLKPEDTAVYYCAATVSAYEMDYWGQGTQVTVSS | low polyreactivity
QVQLVESGGGLFQAGGSLRLSCAASGSTLGSNAMGWYRQAPGKERELVAAITWSGGTTYYADSLKGRFTISRDNAKNTVYLQMNSLKPEDTAVYYCAPGQSVIYRYEFWGQGTQVTVSS | low polyreactivity
QVQLVESGGGLVQAGGSLRLSCAASGFIFAEYAMGWYRQAPGKERELVAAITSGGSTSYADSVKGRFTISRDNAKNTVYLQMNSLIPEDTAVYYCAATWYYHYNDWKHWYEYGYWGQGTQVTVSS | low polyreactivity
QVQLVESGGGLVQAGGSLRLSCAASGRTFYKNTMGWYIQAPGKERELVATISQRGGSTYYADSVKGRFTISRDNAKNTVYLQMNSLKPEDTAVYYCNARKYTQSIHYDYWGQGTQVTVSS | high polyreactivity
QVQLVESGGGLVQAGGSLRLSCAASGFTSWQYAMGWYRQAPGKERELVAAISVSGASTYYADSVKGRFTISRDNAKNTVYLQMNSLKPEDTAVYYCAAAYVRYPTTRYYYWGQGTQVTVSS | high polyreactivity
